Results: US20040167074A1, “Therapeutic applications of mFLINT polypeptides” (priority 1998, published 2004)
Where “and” joins values, the source holds several entries; their conditions need not be identical. Identical values can stand only once.

Columns and labels:
Jurkat cells [1] = test: anti-CD3 induced Jurkat apoptosis (Annexin V/PI, FACS); format: cell-based; details: Example 12; Jurkat + antiCD3 + 10 μM DEVD-cmk
Description: Non-tissue treated 24 well plates (Decton Dickinson, Mansfield, Mass.) were coated with 0.5 ml of 1 ug/ml anti-CD3 (Farmingen) in PBS for 90 min at 37° C. The plate was washed once with PBS.
Cells were incubated overnight at 37° C. incubator and cells were then stained by Annexin V and PI staining. Apotosis was analyzed by flow cytometer (FACS). Cell apoptosis was indicated by positive staining with Annexin V.

[2] = target: FasL expressed by anti-CD3-activated Jurkat cells
[3] = target: soluble Fas L (recombinant FasL)
[4] = target: FasL expressed by anti-CD3-activated Jurkat cells; remark: listed apart in the source
FasL = target: T1, FasL (Homo sapiens, UniProt P48023); test: BiaCore real-time biomolecular interaction analysis (surface plasmon resonance); format: binding; details: immobilized FasL (monomer bound), analyte in solution
T1 construct: purchased Kamiya Biomedical Company
T1 sequence (P48023 130-281 limits assumed): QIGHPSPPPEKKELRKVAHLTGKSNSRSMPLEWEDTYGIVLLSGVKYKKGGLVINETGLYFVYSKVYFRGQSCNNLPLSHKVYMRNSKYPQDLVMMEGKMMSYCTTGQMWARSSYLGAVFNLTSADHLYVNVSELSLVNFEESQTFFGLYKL
Source text: FLINT-Fas L binding may be confirmed and specifics of binding determined (e.g., kinetics, specificity, affinity, cooperativity, relative binding pattern, concentration) using real-time biomolecular interaction analysis. This technology confers the ability to study biomolecular interactions in real time, without labeling any of the interactants. In particular, it takes advantage of the optical phenomenon surface plasmon resonance, and detection depends on changes in the mass concentration of macromolecules at the biospecific interface. Interactions are followed in real time, so that kinetic information is readily derived. In many cases, investigations can be performed without prior purification of components.
Measurements are accomplished using a BiaCore 2000 instrument. The instrument, accompanying chips, immobilization and maintenance kits and buffers are obtained from Biacore AB, Rapsgatan 7, S-754 50 Uppsala, Sweden. FasL is obtained from Kamiya Biomedical Company, 910 Industry Drive, Seattle, Wash. 98188, Guanidine Isothiocyanate Solution from GibcoBRL, and mFLINT is prepared as in Examples 8 and 9.
Experiments using immobilized FasL loaded with a solution containing mFLINT. […] This is explained by the fact that FasL is a trimer, yet here FasL monomer was bound. Further experiments utilized bound FLINT with FasL in solution, allowing for trimer formation. […] This observations indicate that FLINT should effectively compete with Fas for FasL binding, which likely explains the therapeutic benefit observed in experiments detailed below.

hFasLigand (Flag-tagged) = target: T2, hFasLigand (Flag-tagged) (Homo sapiens, UniProt P48023); test: ELISA: FasLigand binding to adsorbed FLINT and Fas; details: 100 ng receptor adsorbed
T2 sequence (P48023 103-281 limits assumed): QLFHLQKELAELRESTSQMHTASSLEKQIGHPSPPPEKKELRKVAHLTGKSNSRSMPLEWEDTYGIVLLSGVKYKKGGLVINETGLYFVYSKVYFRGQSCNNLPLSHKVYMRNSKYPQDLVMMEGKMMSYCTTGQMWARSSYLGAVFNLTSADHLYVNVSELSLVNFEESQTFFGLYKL
Description: FLINT and Fas (100 ng of each) were adsorbed on to an ELISA plate. hFasLigand (Flag-tagged) was added at different concentrations to a maximum concentration of 300 ng down to 0.1 ng on TBST plus a 0.1% solution containing 1 microgram/ml of M2 Abs. After washing of the plate, anti-mouse-Abs-HRP (1:3000 dilution, Bio-Rad) was added to the wells. After washings, visualization enzymatic reaction using ABTS as a substrate was performed.

[5] = test system: Mouse T cell hybridoma cells (LTT cells); test: Murine FasL-mediated apoptosis of LTT cells (Annexin V assay); format: cell-based; details: test agent 1 μg/ml
Description: (§1) LTT,2,14,11 cells (LTT cells), see Glasebrook, Eur.J.Immunol. 17: 1561-65 (1987), were used in this Annexin V assay. On the first day, a 96 well plate was coated with anti-CD3 (2C11) at a serial dilutions. On the second day, 100,000 LTT cells were added, in 50 μl of medium per well, along with 50 μl of medium to the control wells and 50 μl of medium containing:
Group 1. solubleFas (sFas)(FasFc, mouse), with a final concentration of 1 μg/ml
Group 2. mFLINT (human), with a final concentration of 1 ug/ml
Group 3. anti-FasL (mouse), with a final concentration of 1 ug/ml.
These then were incubated overnight, at 37° C., in 5% CO2;
On the following day (Day 3), the cells were collected from each well, washed and labeled with Annexin V and PI, following Flow cytometry analysis.

[6] = test system: Mouse T cell hybridoma cells (LTT cells); test: Murine FasL-mediated apoptosis of LTT cells (MTS cytotoxicity assay); format: cell-based; details: test agent 1 μg/ml
Description: as §1
The same steps as in Example 16 were followed on Day 1 and Day 2. On Day 3 20 ul of MTS solution (Promega) was added to the cells which were then incubated at 37° C. for 2 hours. Using a plate reader, the absorbances at 490 nm wavelength were collected.

LIGHT = LIGHT cell surface binding assay by flow cytometry
Description: To confirm the dot blot binding between LIGHT and mFLINT, 293 cells were transiently transfected with LIGHT expression construct overnight. On the next day, cells were detached and incubated with mFLINT-Flag on ice. […] As a control we used vector transfected cells. To make sure that the binding was specific, a competition assay with 10 fold access of untagged mFLINT was performed.
More particularly, 6 well dishes of cells were transfected as above. Both vector and m-LIGHT expressing cells were provided. Cells were detached from the plates by vigorous pipetting with a P100 Pipettor. Then, in PBS/BSA, 0.1%, cells were exposed to one of the following combinations, set forth in a-d.
a. GST/flag, mFLINT/flag, or HVEM at 20 nM;
b. FLINT/flag at 20 nM+GST/flag or mFLINT or HVEM at 200 nM;
c. FLINT/flag at 20 nM+HVEM+anti-human FAS ligand at 200 n-M;
d. anti-human FAS ligand-biotin at 1 μg/ml
Cells were incubated on ice for 30 minutes and washed with PBS/BSA, 0.1%. Cells then were exposed either to anti-human IgG-biotin, 1 μg/ml (for detection of HVEM), or to M2-biotin, 2 μg/ml (for detection of flag conjugates). Cells were incubated on ice for 30 minutes and washed with PBS/BSA, 0.1%. Thereafter, cells were exposed to streptavidin Alexa 488 (SIGMA) at a 1:1000 dilution. Again, cells were incubated on ice for 30 minutes and washed with PBS/BSA, 0.1 1%. Cells were analyzed using a FACSORT flow cytometer (Decton Dickinson) to determine binding.

Jurkat cells [7] = test: Recombinant FasL induced Jurkat cell apoptosis (Annexin V/PI, FACS); format: cell-based; details: Jurkat + inducer alone 200 ng/ml, overnight
Description: One milliliter of 1×10^6 cell/ml was added into each well of 24 well tissue culture plate and treated with following reagents: soluble Fas L (200 ng), Fas L plus 1 ug mFLINT, Fas L plus 1 ug OPG2-Fc, Trail (200 ng), Trail plus 1 ug mFLINT. Cells were incubated overnight at 37° C. and then stained with Annexin V and PI.

## DEVD-cmk [DEVDcmk, reference compound]
Jurkat cells [1]
  Cell apoptosis (positive staining with Annexin V): 30.80

## OPG2-Fc (Fc fusion)
[2]
  apoptosis of Jurkat cells, positive staining with Annexin V (FACS): 45.8
[3]
  apoptosis of Jurkat cells, Annexin V and PI (FACS): 70.6
[4]
  apoptosis of Jurkat cells: 26.2

B1: Fas: Fas receptor protein adsorbed on ELISA plate or compared in BiaCore (protein, UniProt P25446 22-169, looked up)
extracellular domain: QGTNSISESLKLRRRVRETDKNCSEGLYQGGPFCCQPCQPGKKKVEDCKMNGGTPTCAPCTEGKEYMDKNHYADKCRRCTLCDEEHGLEVETNCTLTQNTKCKCKPDFYCDSPGCEHCVRCASCEHGTLEPCTATSNTNCRKQSPRNR
modifications: extracellular domain
notes: Fas receptor protein adsorbed on ELISA plate or compared in BiaCore
FasL
  Kd: 162 nM
hFasLigand (Flag-tagged); FasL 0.1 ng
  OD, 405 nM: 0
hFasLigand (Flag-tagged); FasL 0.5 ng
  OD, 405 nM: 0
hFasLigand (Flag-tagged); FasL 1.0 ng
  OD, 405 nM: 0
hFasLigand (Flag-tagged); FasL 5.0 ng
  OD, 405 nM: .01
hFasLigand (Flag-tagged); FasL 10 ng
  OD, 405 nM: .03
hFasLigand (Flag-tagged); FasL 50 ng
  OD, 405 nM: .045
hFasLigand (Flag-tagged); FasL 100 ng
  OD, 405 nM: .18

B2: SFas: solubleFas (sFas)(FasFc, mouse) (protein)
chain: QGTNSISESLKLRRRVRETDKNCSEGLYQGGPFCCQPCQPGKKKVEDCKMNGGTPTCAPCTEGKEYMDKNHYADKCRRCTLCDEEHGLEVETNCTLTQNTKCKCKPDFYCDSPGCEHCVRCASCEHGTLEPCTATSNTNCRKQSPRNR
[5]; Anti CD3 0
  % Annexin V Positive: 23.14%
[5]; Anti CD3 0.11
  % Annexin V Positive: 41.08%
[5]; Anti CD3 0.33
  % Annexin V Positive: 47.28%
[5]; Anti CD3 1
  % Annexin V Positive: 56.66%
[6]; Anti CD3 conc. 0 μg/ml
  MTS absorbance at 490 nm: 1.774
[6]; Anti CD3 conc. 0.0014 μg/ml
  MTS absorbance at 490 nm: 1.968
[6]; Anti CD3 conc. 0.004 μg/ml
  MTS absorbance at 490 nm: 1.929
[6]; Anti CD3 conc. 0.012 μg/ml
  MTS absorbance at 490 nm: 1.779
[6]; Anti CD3 conc. 0.037 μg/ml
  MTS absorbance at 490 nm: 1.777
[6]; Anti CD3 conc. 0.11 μg/ml
  MTS absorbance at 490 nm: 1.638
[6]; Anti CD3 conc. 0.33 μg/ml
  MTS absorbance at 490 nm: 1.624
[6]; Anti CD3 conc. 1 μg/ml
  MTS absorbance at 490 nm: 1.459

B3: mFLINT-Flag: FLINT with the Flag sequence attached at the C-terminal end: [FLINT]-DYKDDDDK (protein)
chain: VAETPTYPWRDAETGERLVCAQCPPGTFVQRPCRRDSPTTCGPCPPRHYTQFWNYLERCRYCNVLCGEREEEARACHATHNRACRCRTGFFAHAGFCLEHASCPPGAGVIAPGTPSQNTQCQPCPPGTFSASSSSSEQCQPHRNCTALGLALNVPGSSSHDTLCTSCTGFPLSTRVPGAEECERAVIDFVAFQDISIKRLQRLLQALEAPEGWGPTPRAGRAALQLKLRRRLTELLGAQDGALLVRLLQALRVARMPGLERSVRERFLPVHDYKDDDDK
LIGHT; LIGHT-transfected 293 cells
  cell surface binding (flow cytometry peak shift): peaks shifted only when LIGHT expressing cells were stained with mFLINT-Flag
LIGHT; vector transfected control cells
  cell surface binding (flow cytometry peak shift): no shift in the control cells

B4: TRAIL: TNF ligand TRAIL (RnD Systems) (protein, UniProt P50591 1-281, looked up)
Tumor necrosis factor ligand …: MAMMEVQGGPSLGQTCVLIVIFTVLLQSLCVAVTYVYFTNELKQMQDKYSKSGIACFLKEDDSYWDPNDEESMNSPCWQVKWQLRQLVRKMILRTSEETISTVQEKQQNISPLVRERGPQRVAAHITGTRGRSNTLSSPNSKNEKALGRKINSWESSRSGHSFLSNLHLRNGELVIHEKGFYYIYSQTYFRFQEEIKENTKNDKQMVQYIYKYTSYPDPILLMKSARNSCWSKDAEYGLYSIYQGGIFELKENDRIFVSVTNEHLIDMDHEASFFGAFLVG
Jurkat cells [7]
  Cell apoptosis (Annexin V and PI, FACS): 17.47 and 17.43
